In patent publication US20230220085A1 (BRIGHAM AND WOMEN S HOSPITAL, published 2023):

Legend:
[1] = target: T1, Recombinant human ALK1-Fc (ALK1 extracellular domain-IgG Fc fusion protein) (human, UniProt P37023 22-118); test: BLI (Octet Red), immobilized ALK1, FIG. 2A
T1 construct: extracellular domain; Bought reagent (R&D #370AL is named for the luciferase assay); also called immobilized ALK1; ACVRL1; not shown: IgG Fc of the bought fusion protein (captured on anti-human IgG Fc sensors)
Description: (§1) To characterize the biochemical interactions of the scFv clones with recombinant human ALK1 and BMPR2 receptors, we used Bio-Layer Interferometry (Octet Red 384, ForteBio). Receptors, expressed as IgG Fc fusion proteins (i.e., ALK1-Fc, and BMPR2-Fc) were immobilized onto Anti-Human IgG Fc Capture Sensors (ForteBio, #18-0015) at a concentration of 10 µg/mL in an equilibration buffer of HEPES 20 mM (GIBCO #15630), 0.05% Tween-20 (Promega #H5151), and Imidazole 25 mM (SIGMA #10250) in PBS. All the clones were tested at different ranges of concentration in equilibration buffer: 50 nM, 100 nM, 200 nM, and 400 nM. The ForteBio program methodology was set as follows: Baseline equilibration of 60 s, loading time of 60 s, washing time of 120 s, association time of 300 s, and dissociation time of 600 s. The binding kinetics were analyzed using the ForteBio data analysis software.
(§2) Bio-Layer Interferometry was used to determine the affinities of scFv clones for human BMPR2 and ALK1 receptors. The binding kinetics of scFv clones ALK1.3 (FIG. 1A) and ALK1.8 (FIG. 1B) versus immobilized ALK1; and BMPR2.12 (FIG. 1C) and BMPR2.23 (FIG. 1D) against BMPR2 are shown.

[2] = target: T2, Recombinant human BMPR2-Fc (BMPR2 extracellular domain-IgG Fc fusion protein) (human, UniProt Q13873 27-150); test: BLI (Octet Red), FIG. 2B
T2 construct: extracellular domain; also called immobilized BMPR2; BMPRII; not shown: IgG Fc of the fusion protein (captured on anti-human IgG Fc sensors)
T2 sequence (looked up): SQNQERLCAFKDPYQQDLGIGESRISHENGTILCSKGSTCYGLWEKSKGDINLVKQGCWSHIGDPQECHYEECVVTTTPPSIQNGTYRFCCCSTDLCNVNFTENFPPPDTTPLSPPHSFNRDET
Description: as §1, §2

[3] = target: T2, Recombinant human BMPR2-Fc (BMPR2 …); test: BLI, FIG. 4C
Description: as §1

[4] = target: T1, Recombinant human ALK1-Fc (ALK1 …); test: BLI, immobilized ALK1, FIG. 4B
Description: as §1

[5] = target: T1, Recombinant human ALK1-Fc (ALK1 …); test: BLI (Octet Red), FIG. 2A
Description: as §1, §2

[6] = target: T2, Recombinant human BMPR2-Fc (BMPR2 …); test: BLI, immobilized BMPR2, FIG. 4C
Description: as §1

[7] = target: T1, Recombinant human ALK1-Fc (ALK1 …); test: BLI, FIG. 4B
Description: as §1

[8] = target: T1, Recombinant human ALK1-Fc (ALK1 …); test: BLI, immobilized ALK1, FIG. 4D
Description: as §1

T1 sequence (P37023 22-118): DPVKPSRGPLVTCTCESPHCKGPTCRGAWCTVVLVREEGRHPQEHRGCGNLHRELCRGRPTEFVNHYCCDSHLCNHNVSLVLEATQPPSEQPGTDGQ

B1: scFv clone BMPR2.12 (anti-BMPR2/BMPRII) (scFv)
scFv: QSALTQPASVSGSPGQSITISCTGTSSDVGGYKSVSWYQQHPGKAPKLMIYDVSNRPSGVSDRFSGSKSGNTASLTISGLQAEDEADYYCSSYTSSSSLWVFGGGTKLTVLGEGKSSGSGSESKASQVQLVQSGAEVKKPGSSVKVSCKASGGTFSSYAISWVRQAPGQGLEWMGRIIPILGIANYAQKFQGRVTMTEDTSTDTAYMELSSLRSEDTAVYYCATDLWGVGADWGQGTLVTVSS
notes: Human scFv from phage display, VL-linker-VH, expressed in E. coli
B1: no binding [1]; binds [2].

B2: Biotinylated scFv BMPR2.12 (scFv)
scFv: QSALTQPASVSGSPGQSITISCTGTSSDVGGYKSVSWYQQHPGKAPKLMIYDVSNRPSGVSDRFSGSKSGNTASLTISGLQAEDEADYYCSSYTSSSSLWVFGGGTKLTVLGEGKSSGSGSESKASQVQLVQSGAEVKKPGSSVKVSCKASGGTFSSYAISWVRQAPGQGLEWMGRIIPILGIANYAQKFQGRVTMTEDTSTDTAYMELSSLRSEDTAVYYCATDLWGVGADWGQGTLVTVSS
modifications: biotinylated (DSB-X Biotin Protein Labeling Kit; average 1.5-2 sites per molecule; sites not stated)
notes: BMPR2.12 scFv after low substitution ratio biotinylation; also called BMPR2.12-Bio
B2: binds [3]; no binding [4].

B3: scFv clone ALK1.3 (anti-ACVRL1/ALK1) (scFv)
scFv: QSALTQPASVSGSPGQSITISCAGTSSDVGTYNYVSWYQQHPGKAPKLMIYDVSKRPSGVPDRFSGSKSGNTASLTISGLQAEDEADYYCYSYTTSSTWVFGGGTKVTVLGEGKSSGSGSESKASQVQLQESGPGLLKPSQTLSLTCTVSGDSIGSGDYYWSWIRQPPGKGLEWIGYSYHTGSTDYNPSLKSRVSISVDRSKNQFSLKLRSVTAADTAVYYCARDYYGYLGYWGQGTLVTVSS
notes: as for B1
B3: binds [5]; no binding [6].

B4: Biotinylated scFv ALK1.3 (scFv)
scFv: QSALTQPASVSGSPGQSITISCAGTSSDVGTYNYVSWYQQHPGKAPKLMIYDVSKRPSGVPDRFSGSKSGNTASLTISGLQAEDEADYYCYSYTTSSTWVFGGGTKVTVLGEGKSSGSGSESKASQVQLQESGPGLLKPSQTLSLTCTVSGDSIGSGDYYWSWIRQPPGKGLEWIGYSYHTGSTDYNPSLKSRVSISVDRSKNQFSLKLRSVTAADTAVYYCARDYYGYLGYWGQGTLVTVSS
modifications: biotinylated (DSB-X Biotin Protein Labeling Kit; average 1.5-2 sites per molecule; sites not stated)
notes: ALK1.3 scFv after low substitution ratio biotinylation; also called ALK1.3-Bio
B4: no binding [6]; binds [7].

B5: scFv clone BMPR2.23 (anti-BMPR2/BMPRII) (scFv)
scFv: QAVLTQPSSLSASPGASASLTCTLHSGINVATYRIYWYQQKPGSPPQYLLTYKSDLDKHQGSGVPSRFSGSKDASANAGILLISGLQSDDEGDYYCLIWHDYVWYFGGGTKVTVLGEGKSSGSGSESKASEVQLLESGGGLVQPGRSLRLSCAASGFTFDDYAMHWVRQAPGKGLEWVSGISWNSGSIGYADSVKGRFTISRDNAKNSLYLQMNSLRAEDTALYYCAKGGWGSSTHYYYGMDVWGQGTTVTVSS
B5: no binding [8].

B6: Biotinylated scFv BMPR2.23 (scFv)
scFv: QAVLTQPSSLSASPGASASLTCTLHSGINVATYRIYWYQQKPGSPPQYLLTYKSDLDKHQGSGVPSRFSGSKDASANAGILLISGLQSDDEGDYYCLIWHDYVWYFGGGTKVTVLGEGKSSGSGSESKASEVQLLESGGGLVQPGRSLRLSCAASGFTFDDYAMHWVRQAPGKGLEWVSGISWNSGSIGYADSVKGRFTISRDNAKNSLYLQMNSLRAEDTALYYCAKGGWGSSTHYYYGMDVWGQGTTVTVSS
modifications: biotinylated (DSB-X Biotin Protein Labeling Kit; average 1.5-2 sites per molecule; sites not stated)
notes: BMPR2.23 scFv after biotinylation
B6: no binding [8].
